Laboratory results: PMC2756588

T1: Nbp2, Q12163
T1 sequence (Q12163 103-180, looked up): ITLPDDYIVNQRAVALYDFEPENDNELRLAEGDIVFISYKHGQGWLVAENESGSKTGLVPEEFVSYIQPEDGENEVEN

T2: Abp1, P15891
T2 sequence (P15891 535-592, looked up): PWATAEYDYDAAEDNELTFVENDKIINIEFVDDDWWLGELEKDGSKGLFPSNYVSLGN

T3: Hof1, Q05080
T3 sequence (Q05080 590-669, looked up): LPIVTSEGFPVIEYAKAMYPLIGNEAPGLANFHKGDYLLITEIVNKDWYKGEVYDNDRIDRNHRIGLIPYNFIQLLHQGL

T4: Bzz1-1, P38822
T4 sequence (P38822 478-572, looked up): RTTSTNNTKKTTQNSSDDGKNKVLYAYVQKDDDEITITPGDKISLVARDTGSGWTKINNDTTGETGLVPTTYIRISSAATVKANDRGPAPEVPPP

T5: Pex13, P80667
T5 sequence (P80667 295-386, looked up): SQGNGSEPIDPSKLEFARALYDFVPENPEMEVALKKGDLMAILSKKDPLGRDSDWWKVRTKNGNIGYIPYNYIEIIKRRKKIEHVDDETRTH

T6: Bzz1-2, P38822
T6 sequence (P38822 568-633, looked up): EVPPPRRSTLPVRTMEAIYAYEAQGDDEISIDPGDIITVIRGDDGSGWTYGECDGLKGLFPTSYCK

T7: Cdc25, P04821
T7 sequence (P04821 50-136, looked up): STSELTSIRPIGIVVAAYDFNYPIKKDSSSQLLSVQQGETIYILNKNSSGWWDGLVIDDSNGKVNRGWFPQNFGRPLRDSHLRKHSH

T8: Lsb3, P43603
T8 sequence (P43603 385-451, looked up): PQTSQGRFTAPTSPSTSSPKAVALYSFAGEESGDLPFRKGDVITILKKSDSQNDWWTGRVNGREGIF

T9: Lsb4, P32793
T9 sequence (P32793 402-468, looked up): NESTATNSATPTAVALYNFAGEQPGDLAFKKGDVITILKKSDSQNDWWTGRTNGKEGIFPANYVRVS

T10: Cyk3, Q07533
T10 sequence (Q07533 1-83, looked up): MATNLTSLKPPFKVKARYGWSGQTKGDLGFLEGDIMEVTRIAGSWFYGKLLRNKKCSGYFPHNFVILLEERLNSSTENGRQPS

T11: Lsb1, P53281
T11 sequence (P53281 45-122, looked up): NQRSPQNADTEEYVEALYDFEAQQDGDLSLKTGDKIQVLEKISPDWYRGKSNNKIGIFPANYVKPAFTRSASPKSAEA

T12: Fus1, P11710
T12 sequence (P11710 432-512, looked up): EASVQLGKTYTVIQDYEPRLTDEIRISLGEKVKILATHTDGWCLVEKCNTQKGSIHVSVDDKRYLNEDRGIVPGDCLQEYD

T13: Sla1-3, P32790
T13 sequence (P32790 344-424, looked up): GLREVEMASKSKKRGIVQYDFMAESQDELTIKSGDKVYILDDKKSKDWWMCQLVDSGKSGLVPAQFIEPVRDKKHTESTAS

T14: Pin3, Q06449
T14 sequence (Q06449 53-122, looked up): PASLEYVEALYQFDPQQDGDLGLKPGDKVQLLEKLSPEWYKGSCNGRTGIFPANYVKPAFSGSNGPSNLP

T15: Boi2, P39969
T15 sequence (P39969 32-116, looked up): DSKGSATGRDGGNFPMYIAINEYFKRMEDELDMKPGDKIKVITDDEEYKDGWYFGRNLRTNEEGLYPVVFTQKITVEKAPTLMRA

T16: Bud14, P27637
T16 sequence (P27637 247-328, looked up): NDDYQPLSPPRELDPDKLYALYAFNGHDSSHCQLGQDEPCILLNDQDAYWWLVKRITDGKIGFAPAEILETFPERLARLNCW

T17: Sla1-2, P32790
T17 sequence (P32790 60-140, looked up): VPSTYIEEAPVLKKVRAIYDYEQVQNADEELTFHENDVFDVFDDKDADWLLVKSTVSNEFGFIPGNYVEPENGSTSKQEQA

T18: Boi1, P38041
T18 sequence (P38041 1-86, looked up): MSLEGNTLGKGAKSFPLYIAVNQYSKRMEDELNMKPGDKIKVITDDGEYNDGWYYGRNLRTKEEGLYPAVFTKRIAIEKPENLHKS

T19: Bbc1, P47068
T19 sequence (P47068 1-78, looked up): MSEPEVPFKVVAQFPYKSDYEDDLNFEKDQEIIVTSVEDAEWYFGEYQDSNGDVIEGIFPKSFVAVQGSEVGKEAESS

T20: Hse1, P38753
T20 sequence (P38753 208-285, looked up): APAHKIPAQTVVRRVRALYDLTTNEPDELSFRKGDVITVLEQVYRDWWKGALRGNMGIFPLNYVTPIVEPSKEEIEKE

T21: Myo5, Q04439
T21 sequence (Q04439 1072-1160, looked up): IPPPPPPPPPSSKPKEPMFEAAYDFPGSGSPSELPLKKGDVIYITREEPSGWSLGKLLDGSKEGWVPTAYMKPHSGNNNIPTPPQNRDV

B1: unnamed (peptide)
chain: KNRKNLPTIPIRLSG
B2: unnamed (peptide)
chain: TPRLSLPRLPNKHHW
B3: unnamed (peptide)
chain: QLMKNLPKIPLLNDI
B4: unnamed (peptide)
chain: RRSKSLPTTPGIRSG
B5: unnamed (peptide)
chain: SRSKPLPLTPNSKYN
B6: unnamed (peptide)
chain: DHPKGPPPPPPPDEK

The binders below were run against T1, Nbp2, Q12163 (assay: SPOT array). Settings: median of control spots 357.

SPOT intensity | Binder
47 | B1
0 | B2
10 | B3
49 | B4
0 | B5
1 | B6

What follows are binders tested against T2, Abp1, P15891 (assay: SPOT array). Settings: median of control spots 935.

SPOT intensity | Binder
333 | B1
37 | B2
76 | B3
229 | B4
109 | B5
0 | B6

Each binder was assayed against T3, Hof1, Q05080 (assay: SPOT array). Settings: median of control spots 4086.

SPOT intensity | Binder
26 | B1
1600 | B2
11 | B3
0 | B4
0 | B5
2 | B6

What follows are binders tested against GST (assay: SPOT array). Settings: median of control spots 978.

SPOT intensity | Binder
0 | B1
0 | B2
1 | B3
0 | B4
0 | B5
0 | B6

The binders below were run against Sho1, P40073 (assay: SPOT array). Settings: median of control spots 1148.
Sho1, P40073, sequence (P40073 287-367): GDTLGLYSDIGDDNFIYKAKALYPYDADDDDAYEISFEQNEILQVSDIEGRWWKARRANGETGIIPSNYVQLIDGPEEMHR

SPOT intensity | Binder
1660 | B1
35 | B2
861 | B3
1350 | B4
1030 | B5
0 | B6

The binders below were run against T4, Bzz1-1, P38822 (assay: SPOT array). Settings: median of control spots 4446.

SPOT intensity | Binder
0 | B1
0 | B2
1 | B3
0 | B4
2 | B5
72 | B6

These binders were tested against T5, Pex13, P80667 (assay: SPOT array). Settings: median of control spots 1341.

SPOT intensity | Binder
13 | B1
45 | B2
162 | B3
8 | B4
21 | B5
0 | B6

What follows are binders tested against T6, Bzz1-2, P38822 (assay: SPOT array). Settings: median of control spots 4538.

SPOT intensity | Binder
4 | B1
1 | B2
7 | B3
1 | B4
4 | B5
12 | B6

Each binder was assayed against T7, Cdc25, P04821 (assay: SPOT array). Settings: median of control spots 969.

SPOT intensity | Binder
5 | B1
10 | B2
0 | B3
17 | B4
2 | B5
6 | B6

Each binder was assayed against T8, Lsb3, P43603 (assay: SPOT array). Settings: median of control spots 406.

SPOT intensity | Binder
25 | B1
0 | B2
21 | B3
1 | B4
0 | B5
0 | B6

These binders were tested against Bem1-1, P29366 (assay: SPOT array). Settings: median of control spots 4282.
Bem1-1, P29366, sequence (P29366 55-141): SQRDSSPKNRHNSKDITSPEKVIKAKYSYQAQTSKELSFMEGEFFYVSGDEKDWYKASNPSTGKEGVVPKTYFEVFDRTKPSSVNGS

SPOT intensity | Binder
4 | B1
0 | B2
5 | B3
1 | B4
0 | B5
8 | B6

The binders below were run against T9, Lsb4, P32793 (assay: SPOT array). Settings: median of control spots 397.

SPOT intensity | Binder
103 | B1
0 | B2
41 | B3
2 | B4
2 | B5
0 | B6

What follows are binders tested against T10, Cyk3, Q07533 (assay: SPOT array). Settings: median of control spots 1451.

SPOT intensity | Binder
1 | B1
0 | B2
0 | B3
0 | B4
1 | B5
0 | B6

The binders below were run against T11, Lsb1, P53281 (assay: SPOT array). Settings: median of control spots 388.

SPOT intensity | Binder
1220 | B1
0 | B2
6 | B3
8 | B4
0 | B5
0 | B6

The binders below were run against T12, Fus1, P11710 (assay: SPOT array). Settings: median of control spots 1200.

SPOT intensity | Binder
24 | B1
0 | B2
0 | B3
63 | B4
0 | B5
0 | B6

Each binder was assayed against Rvs167, P39743 (assay: SPOT array). Settings: median of control spots 2707.
Rvs167, P39743, sequence (P39743 419-482): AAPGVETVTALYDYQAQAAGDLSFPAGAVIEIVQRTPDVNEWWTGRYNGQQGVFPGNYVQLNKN

SPOT intensity | Binder
86 | B1
2 | B2
0 | B3
0 | B4
1 | B5
0 | B6

These binders were tested against T13, Sla1-3, P32790 (assay: SPOT array). Settings: median of control spots 5475.

SPOT intensity | Binder
55 | B1
0 | B2
2 | B3
26 | B4
7 | B5
12 | B6

Each binder was assayed against Myo3, P36006 (assay: SPOT array). Settings: median of control spots 468.

SPOT intensity | Binder
5 | B1
0 | B2
72 | B3
12 | B4
0 | B5
431 | B6

Each binder was assayed against T14, Pin3, Q06449 (assay: SPOT array). Settings: median of control spots 2171.

SPOT intensity | Binder
15 | B1
7 | B2
78 | B3
5 | B4
19 | B5
6 | B6

What follows are binders tested against Bem1-2, P29366 (assay: SPOT array). Settings: median of control spots 4347.
Bem1-2, P29366, sequence (P29366 139-227): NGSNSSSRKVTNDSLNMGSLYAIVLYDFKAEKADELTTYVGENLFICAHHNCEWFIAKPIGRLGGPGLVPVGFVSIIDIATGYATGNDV

SPOT intensity | Binder
16 | B1
3 | B2
0 | B3
0 | B4
1 | B5
0 | B6

What follows are binders tested against T15, Boi2, P39969 (assay: SPOT array). Settings: median of control spots 1161.

SPOT intensity | Binder
2 | B1
0 | B2
1 | B3
1 | B4
0 | B5
0 | B6

Each binder was assayed against T16, Bud14, P27637 (assay: SPOT array). Settings: median of control spots 956.

SPOT intensity | Binder
3 | B1
9 | B2
0 | B3
20 | B4
5 | B5
1 | B6

These binders were tested against T17, Sla1-2, P32790 (assay: SPOT array). Settings: median of control spots 712.

SPOT intensity | Binder
0 | B1
0 | B2
5 | B3
0 | B4
3 | B5
0 | B6

Each binder was assayed against T18, Boi1, P38041 (assay: SPOT array). Settings: median of control spots 1162.

SPOT intensity | Binder
3 | B1
4 | B2
1 | B3
3 | B4
2 | B5
0 | B6

Each binder was assayed against T19, Bbc1, P47068 (assay: SPOT array). Settings: median of control spots 796.

SPOT intensity | Binder
25 | B1
2 | B2
0 | B3
19 | B4
5 | B5
0 | B6

These binders were tested against T20, Hse1, P38753 (assay: SPOT array). Settings: median of control spots 1727.

SPOT intensity | Binder
2 | B1
30 | B2
1 | B3
5 | B4
1 | B5
0 | B6

The binders below were run against T21, Myo5, Q04439 (assay: SPOT array). Settings: median of control spots 471.

SPOT intensity | Binder
1 | B1
0 | B2
68 | B3
0 | B4
0 | B5
298 | B6
